Experimental data: patent US20250051407A1, “De novo designed sequence-specific DNA binding proteins” (University of Washington, priority 2023, published 2025)

Assays:
[1] = tested on: DBP57-TetR (synthetic construct); assay: cell_activity; conditions: E. coli YFP NOT gate, 1 mM IPTG
[2] = tested on: DBP48-TetR (synthetic construct); assay: cell_activity; conditions: E. coli YFP NOT gate, 1 mM IPTG
13 unique dsDNA targets = assay: All-by-all yeast surface display screen of DBP design hits; assay type: binding
Method: And an all-by-all screen of DBP design hits to 13 unique dsDNA targets was performed (FIG. 4, table 2). […] To try to understand these observed binding preferences, each tested DNA sequence was threaded onto each design complex model at all possible base pair alignments, the alternative complex models were relaxed with Rosetta™, and the model with the most favorable Rosetta™ ΔΔG was selected.
Saccharomyces cerevisiae EBY100 strain cultures were grown in C-Trp-Ura medium supplemented with 2% (w/v) glucose. For induction of expression, yeast cells were centrifuged at 6,000 g for 1 min and resuspended in SGCAA medium supplemented with 0.2% (w/v) glucose at the cell density of 1×10^7 cells per ml and induced at 30° C. for 16-24 h. Cells were washed with PBSF (PBS with 1% (w/v) BSA) and labeled with biotinylated targets using two labeling methods: with-avidity and without-avidity labeling. For the with-avidity method, the cells were incubated with biotinylated target, together with anti-c-Myc fluorescein isothiocyanate (FITC, Miltenyi Biotech) and streptavidin-phycoerythrin (SAPE, ThermoFisher). The concentration of SAPE in the with-avidity method was used at one-quarter of the concentration of the biotinylated targets. For the without-avidity method, the cells were first incubated with biotinylated targets, washed and secondarily labeled with SAPE and FITC.
(§1) For yeast display characterization of individual designs, including competition assays, DNA sequences encoding the proteins of interest were purchased as Integrated DNA Technologies (IDT) E-Blocks™, transformed into yeast cells, and incubated in 96 well culture plates. Labeling with biotinylated dsDNA targets and SAPE/FITC was performed in a 96 well plate format. For yeast display competition assays, labeling was performed without avidity using 1 μM biotinylated dsDNA duplex oligos and an excess of 8 μM non-biotinylated competitor dsDNA duplex oligos. […] Flow cytometry analysis was performed with an Attune NxT™ flow cytometer with autosampler. Flow cytometry data analysis was performed using custom python code and the CytoFlow™ python package. For each individual sample, gating of the expression population was performed using the CytoFlow™ Gaussian Mixture Model and the ratio of SAPE channel intensity to FITC channel intensity (binding signal/expression signal) was calculated for all gated expression events of the sample.

[3] = tested on: synthetic promoter containing the designed DBP binding sites controlling YFP; assay: Transcriptional repression assay (NOT gate, YFP) in E. coli; assay type: cell-based, Escherichia coli; conditions: IPTG induction (1 mM), flow cytometry
Text: We next tested the ability of the designed DBPs to function in cells to regulate transcription. We constructed candidate NOT gates (38) to assay transcriptional repression in Escherichia coli, where the input is a designed DBP under control of the IPTG-inducible PTac promoter and the output is yellow fluorescent protein (YFP) expression driven by a promoter incorporating each DBP's DNA binding site. […] To increase avidity and bulk, we fused the DBPs to the homodimerization domain of the TetR protein (39), using RFdiffusion (40) and ProteinMPNN sequence design to generate rigid linkers that orient the DBP domain of each dimer unit on a DNA target containing two palindromic binding sites. For DBPs 48, 69, and 57, we selected 96 TetR fusions for experimental characterization in the NOT gate circuit. Upon initial screening, we observed modest repression for several designs and selected two for further validation (one incorporating DBP48, the other DBP57) (FIG. 8). […]

[4] = tested on: synTF-specific cis-regulatory elements (CRE) in HEK293T cells; assay: Transcriptional activation by synTFs in HEK293T cells (ENGRAM); assay type: cell-based; conditions: DBP fused to GCN4 dimerization domain and VP64; HEK293T cells expressing PEmax; dependent on spacing between motifs
Text: Next, we investigated whether the DBPs can be used as activators in mammalian cells. A set of synthetic transcription factors (synTFs) were created by fusing the GCN4 dimerization domain and the VP64 activation domain to the C-termini of DBPs 9, 35opt, 48, 57, and 60 which recognize 3 unique motifs. The dimerization domain allows the DBPs to recognize a palindromic target sequence consisting of two binding motifs, improving the binding affinity to the DNA sequence (FIG. 2C). We created synTF specific cis-regulatory elements (CRE) with 4 repeats spaced by 6 bp to drive the expression of downstream genes, and used the ENGRAM (43) recording technology to measure the activity of the synTFs in HEK293 cells. In ENGRAM, each CRE drives the expression of a uniquely barcoded pegRNA, which upon expression is recorded into the DNA TAPE at the HEK3 locus by prime-editor (PEmax); the activity of individual synTFs can be measured as the abundance of the barcode on the DNA TAPE (FIG. 2C). We first tested 3 different spacings-1 bp, 3 bp, and 5 bp-between the palindromic binding motifs to maximize the recorder activity. 3 synTF specific recorders and 1 TCF-LEF-recorder (negative control) were mixed with ratio 2:2:2:1 and co-transfected with synTFs into the HEK293T cells expressing PEmax. Cells were harvested and analyzed 2 days post-transfection. After analyzing the barcode abundance on the DNA TAPE, we observed 3-5 fold activation for DBP9/DBP35 and DBP57/DBP60 (FIG. 2D).
HEK293T cells expressing PEmax™ were cultured in DMEM High glucose (GIBCO), supplemented with 10% Fetal Bovine Serum (Rocky Mountain Biologicals) and 1% penicillin-streptomycin (GIBCO). Cells were grown with 5% CO2 at 37° C. 1×10^5 cells were seeded on a 48-well plate a day before transfection. Enhancer plasmid and binder plasmid were mixed with a ratio of 2:1. Enhancer variants and background control were mixed with a ratio of 2:2:2:1. A total of 300 ng of plasmid were transfected using Lipofectamine™ 3000 (ThermoFisher, L3000015), following the manufacturer's protocol. Cells were harvested 2 days post-transfection. Genomic DNA was extracted based on the protocol described earlier (43). Briefly, cells were lysed using freshly prepared lysis buffer (10 mM Tris-HCl, pH 7.5; 0.05% SDS; 25 µg/ml protease (ThermoFisher)) for each well. The genomic DNA mixture was incubated at 50° C. for 1 h, followed by an 80° C. enzyme inactivation step for 30 min. The DNA TAPE was amplified from the genomic DNA directly for next generation sequencing. Recorded information was extracted via custom analysis code. Each enhancer has a unique barcode representing its activity. Transcription activation was measured as the fold change in the barcode abundance relative to the negative control barcode. All measurements were performed in triplicates.

[5] = tested on: biotinylated dsDNA oligo (designed DNA target); assay: Clonal yeast surface display binding to biotinylated dsDNA oligo
Text: For each set of designs, synthetic oligonucleotides (230 base pairs) encoding the 50-65-residue designed proteins were ordered in a single pool and cloned into a yeast surface-expression vector. Cells containing designs that bound each DNA target were enriched by several rounds of fluorescence-activated cell sorting (FACS) using fluorescently labeled target dsDNA oligos. The naive and sorted populations for each DNA target were deep sequenced, and the frequency of each design in the starting population and after each sort was determined. From this analysis, we identified 97 designs that were substantially enriched (>100×) in pools sorted with their intended dsDNA target compared to the naive library. […]
For yeast display characterization of individual designs, including competition assays, DNA sequences encoding the proteins of interest were purchased as Integrated DNA Technologies (IDT) E-Blocks™, transformed into yeast cells, and incubated in 96 well culture plates. […] For each individual sample, gating of the expression population was performed using the CytoFlow™ Gaussian Mixture Model and the ratio of SAPE channel intensity to FITC channel intensity (binding signal/expression signal) was calculated for all gated expression events of the sample.

[6] = tested on: biotinylated target dsDNA with non-biotinylated competitor dsDNA; assay: Yeast display competition assay with base-substituted competitor dsDNA; assay type: binding
Text: We used a yeast display competition assay to characterize the DNA binding site specificity of a subset of the designs (FIG. 1A-E, left; FIG. 5). Addition of non-biotinylated competitor dsDNA to biotinylated target sequence reduced binding signal by flow cytometry (FIG. 1A-E, middle). […] For example, in DBP6 (FIG. 1A) R31 and R36 in the design model form bidentate hydrogen bonds with the guanines of base pair positions G12 and C9, respectively, while T32 forms a hydrogen bond with C10.
as §1

## TCTGGATAGTGTATCCAGATTGACATCTGGAAGTATATCCAGATAATGAGCACTTCC (double strand) [PDBP57 synthetic promoter]
[1]
  activity (fold repression): 8.1

## GGCGTCAGGTGGACGCAGATTGACAGCGTCAGGTGGACGCTTATAATGAGCACTTCC (double strand) [PDBP48 synthetic promoter]
[2]
  activity (fold repression): 3.4

B1: DBP57: designed DNA-binding protein, SEQ ID NO: 31, DNA target E (protein)
chain: MVLTPMERIGEFIKRARREAGLTQRELAELAGVGQSTVSRIEKGEKCSPELVEKILEALRKV
13 unique dsDNA targets; 1 μM dsDNA with avidity, including designed target sequence
  Number of the 13 tested DNA target sequences preferentially bound: less than 3
13 unique dsDNA targets; all-by-all screen with Rosetta-predicted motifs
  Binding specificity versus design models: bound with specificity closely consistent with the design models
13 unique dsDNA targets; yeast surface display, 1 μM dsDNA with avidity
  Binding to initial design target: bound strongly
13 unique dsDNA targets; yeast surface display, 1 μM dsDNA with avidity, alternate target H (DBP90), D (DBP48), C (DBP57)
  Binding to alternate target sequence: bound strongly
[3]
  Fold repression of YFP by single DBP domains and tandem linked DBP domains: not observed
[4]
  Fold activation of synTFs measured as normalized barcode abundance in the DNA TAPE: 3-5 fold

B2: DBP35opt: optimized DBP35 combining R33N, K18V and P42Q; sequence matches Table 1 row SEQ ID NO: 50, DNA target B (protein)
chain: GFGRAVKEKRKELGLTQVEFAEKAGLSRRTIINIERGYIVPQKATKEKIAKALGTSVEELEQA
[5]
  Detectable binding down to (dsDNA concentration): ~150 pM
13 unique dsDNA targets; yeast display screen against the 13 DNA targets, versus original DBP35
  Off-target binding: strongly decreased off-target binding
[6]
  Number of base positions of specificity: 7 base positions
[4]
  Fold activation of synTFs measured as normalized barcode abundance in the DNA TAPE: 3-5 fold
